Reference: patent publication US20250051731A1, “COMPOSITIONS AND METHODS FOR ESTABLISHMENT OF BOVINE-INDUCED PLURIPOTENT STEM CELLS” (University of Connecticut, priority 2021, published 2025)

Legend:
[1] = tested on: H3K9me3; assay: Immunostaining of H3K9me3 in bMSCs; assay type: cell-based, bovine; settings: bMSCs overexpressing human KDM4A vs retroviral vector control
Procedure: (§1) Immunostaining: For immunofluorescence, the cells were first fixed in 4% PFA for 15 min at room temperature. Following fixation, the cells were treated with 0.5% Triton X-100 in PBS for 15 min at room temperature for cell membrane permeabilization. After blocking with goat serum (Cell Signaling Technology, Danvers, MA, USA), the cells were incubated in goat serum containing primary antibodies for 2 h at 37° C., followed by secondary antibodies at room temperature for 1 h. Cells were counter-stained with DAPI and imaged under a Nikon fluorescence microscope. Primary antibodies including rabbit anti-OCT4 (Santa Cruz, CA, USA), rabbit anti-SOX2 (Merck Millipore), and mouse anti-NANOG (Merck Millipore) were used at 1:100 dilution while mouse anti-AFP (1:50; Cloud-clone Corp., TX, USA), rabbit anti-TUJ1 (1:500) and mouse anti-SMA (1:400) (Thermo Fisher Scientific) were diluted variously according to their manufacturer's instructions. Alexa Fluor 488 or 594 conjugated goat anti-rabbit or goat anti-mouse secondary antibody (Cell Signaling Technology) were used in 1:1000 dilution. For cell surface marker staining, the cells in different reprogramming conditions were stained with NL557-conjugated TRA-1-60 (1:100), SSEA-3 (1:50; R&D Systems, Minneapolis, MN, USA) and Alexa Fluor 594 conjugated SSEA-4 (1:100; BioLegend, San Diego, CA, USA) according to the manufacturer's protocol.

[2] = tested on: H3K9me2; assay: Immunostaining of H3K9me2 in bMSCs; assay type: cell-based, bovine; settings: bMSCs overexpressing human KDM4A vs vector control
Procedure: as §1

B1: KDM4A: human lysine-specific demethylase 4A overexpressed in bMSCs from pMXs retroviral vector (protein, UniProt O75164 2-1064, looked up)
Lysine-specific demethylase 4A: ASESETLNPSARIMTFYPTMEEFRNFSRYIAYIESQGAHRAGLAKVVPPKEWKPRASYDDIDDLVIPAPIQQLVTGQSGLFTQYNIQKKAMTVREFRKIANSDKYCTPRYSEFEELERKYWKNLTFNPPIYGADVNGTLYEKHVDEWNIGRLRTILDLVEKESGITIEGVNTPYLYFGMWKTSFAWHTEDMDLYSINYLHFGEPKSWYSVPPEHGKRLERLAKGFFPGSAQSCEAFLRHKMTLISPLMLKKYGIPFDKVTQEAGEFMITFPYGYHAGFNHGFNCAESTNFATRRWIEYGKQAVLCSCRKDMVKISMDVFVRKFQPERYKLWKAGKDNTVIDHTLPTPEAAEFLKESELPPRAGNEEECPEEDMEGVEDGEEGDLKTSLAKHRIGTKRHRVCLEIPQEVSQSELFPKEDLSSEQYEMTECPAALAPVRPTHSSVRQVEDGLTFPDYSDSTEVKFEELKNVKLEEEDEEEEQAAAALDLSVNPASVGGRLVFSGSKKKSSSSLGSGSSRDSISSDSETSEPLSCRAQGQTGVLTVHSYAKGDGRVTVGEPCTRKKGSAARSFSERELAEVADEYMFSLEENKKSKGRRQPLSKLPRHHPLVLQECVSDDETSEQLTPEEEAEETEAWAKPLSQLWQNRPPNFEAEKEFNETMAQQAPHCAVCMIFQTYHQVEFGGFNQNCGNASDLAPQKQRTKPLIPEMCFTSTGCSTDINLSTPYLEEDGTSILVSCKKCSVRVHASCYGVPPAKASEDWMCSRCSANALEEDCCLCSLRGGALQRANDDRWVHVSCAVAILEARFVNIAERSPVDVSKIPLPRFKLKCIFCKKRRKRTAGCCVQCSHGRCPTAFHVSCAQAAGVMMQPDDWPFVVFITCFRHKIPNLERAKGALQSITAGQKVISKHKNGRFYQCEVVRLTTETFYEVNFDDGSFSDNLYPEDIVSQDCLQFGPPAEGEVVQVRWTDGQVYGAKFVASHPIQMYQVEFEDGSQLVVKRDDVYTLDEELPKRVKSRLSVASDMRFNEIFTEKEVKQEKKRQRVINSRYREDYIEPALYRAIME
- H3K9me3 by immunostaining [1]: reduced
- H3K9me2 by immunostaining [2]: not
